By Km is commonly meant the concentration of substrate that gives half-maximal velocity.

The source of these data is paper PMC7617739, “Seo1p, a high-affinity, plasma membrane transporter of the γ-Glu-met dipeptide in yeasts and fungi” (The Journal of Biological Chemistry, 2025).

Substrate in the data set: CSCC[C@H](NC(=O)CC[C@H](N)C(=O)O)C(=O)O
Put plainly: cells, lysate or membranes.

B1: Seo1p (Saccharomyces cerevisiae S288C) (protein)
chain: MYSIVKEIIVDPYKRLKWGFIPVKRQVEDLPDDLNSTEIVTISNSIQSHETAENFITTTSEKDQLHFETSSYSEHKDNVNVTRSYEYRDEADRPWWRFFDEQEYRINEKERSHNKWYSWFKQGTSFKEKKLLIKLDVLLAFYSCIAYWVKYLDTVNINNAYVSGMKEDLGFQGNDLVHTQVMYTVGNIIFQLPFLIYLNKLPLNYVLPSLDLCWSLLTVGAAYVNSVPHLKAIRFFIGAFEAPSYLAYQYLFGSFYKHDEMVRRSAFYYLGQYIGILSAGGIQSAVYSSLNGVNGLEGWRWNFIIDAIVSVVVGLIGFYSLPGDPYNCYSIFLTDDEIRLARKRLKENQTGKSDFETKVFDIKLWKTIFSDWKIYILTLWNIFCWNDSNVSSGAYLLWLKSLKRYSIPKLNQLSMITPGLGMVYLMLTGIIADKLHSRWFAIIFTQVFNIIGNSILAAWDVAEGAKWFAFMLQCFGWAMAPVLYSWQNDICRRDAQTRAITLVTMNIMAQSSTAWISVLVWKTEEAPRYLKGFTFTACSAFCLSIWTFVVLYFYKRDERNNAKKNGIVLYNSKHGVEKPTSKDVETLSVSDEK
Turning to B1, the Km turned out to be 48 µM.
